Data taken from patent publication US7566535B2, “Enhanced oligonucleotide-mediated nucleic acid sequence alteration” (University of Delaware, priority 2002, dated 2009).
In the oligonucleotide strings, read from the 5' end, every base follows the letter of its sugar. An asterisk marks phosphorothioate; unmarked linkages are phosphodiester. Other units and linkages are bracketed, terminal groups are in braces. A string of capitals states the bases alone. d = 2'-deoxy (DNA)

Legend:
pAURHYG(rep)eGFP [1] = assay: Correction of pAURHYG(rep)eGFP in yeast LSY678 with or without hydroxyurea; conditions: 5 μg oligo (1.62 μg Hyg10)
pAURHYG(rep)eGFP [2] = assay: In vivo correction of episomal pAURHYG(rep)eGFP in yeast, hygromycin-resistant colonies; conditions: for Average colony count on hygromycin plates / hygromycin-resistant colonies per aureobasidin-resistant colony: wild-type LSY678; for Colonies on Hygromycin / Correction Efficiency / Fold: 5 μg oligo

B1: HygE3T/74: 74-base single-stranded DNA oligonucleotide, three phosphorothioate linkages at each end, SEQ ID NO: 8 (nucleic acid)
DNA: dC*dT*dC*dGdTdGdCdTdTdTdCdAdGdCdTdTdCdGdAdTdGdTdAdGdGdAdGdGdGdCdGdTdGdGdAdTdAdCdGdTdCdCdTdGdCdGdGdGdTdAdAdAdTdAdGdCdTdGdCdGdCdCdGdAdTdGdGdTdTdTdC*dT*dA*dC
pAURHYG(rep)eGFP [1]; 20 mM hydroxyurea 4 h pre-treatment, growth time 20 min
  Correction Efficiency: 4.9 hygromycin resistant colonies
pAURHYG(rep)eGFP [1]; 20 mM hydroxyurea 4 h pre-treatment, growth time 40 min
  Correction Efficiency: 9.5 hygromycin resistant colonies
pAURHYG(rep)eGFP [1]; 20 mM hydroxyurea 4 h pre-treatment, growth time 60 min
  Correction Efficiency: 7.8 hygromycin resistant colonies
pAURHYG(rep)eGFP [1]; 20 mM hydroxyurea 4 h pre-treatment, growth time 90 min
  Correction Efficiency: 22.4 hygromycin resistant colonies
pAURHYG(rep)eGFP [1]; no hydroxyurea, growth time 10 min
  Correction Efficiency: 0.15 hygromycin resistant colonies
pAURHYG(rep)eGFP [1]; no hydroxyurea, growth time 20 min
  Correction Efficiency: 2.9 hygromycin resistant colonies
pAURHYG(rep)eGFP [1]; no hydroxyurea, growth time 40 min
  Correction Efficiency: 3.4 hygromycin resistant colonies
pAURHYG(rep)eGFP [1]; no hydroxyurea, growth time 60 min
  Correction Efficiency: 2.32 hygromycin resistant colonies
pAURHYG(rep)eGFP [1]; no hydroxyurea, growth time 90 min
  Correction Efficiency: 0.56 hygromycin resistant colonies
pAURHYG(rep)eGFP [2]; 1.0 μg oligo
  Average colony count on hygromycin plates: 5
  hygromycin-resistant colonies per aureobasidin-resistant colony: 0.03
pAURHYG(rep)eGFP [2]; 2.5 μg oligo
  Average colony count on hygromycin plates: 99
  hygromycin-resistant colonies per aureobasidin-resistant colony: 0.61
pAURHYG(rep)eGFP [2]; 5.0 μg oligo
  Average colony count on hygromycin plates: 204
  hygromycin-resistant colonies per aureobasidin-resistant colony: 1.26
pAURHYG(rep)eGFP [2]; 7.5 μg oligo
  Average colony count on hygromycin plates: 69
  hygromycin-resistant colonies per aureobasidin-resistant colony: 0.42
pAURHYG(rep)eGFP [2]; 10.0 μg oligo
  Average colony count on hygromycin plates: 19
  hygromycin-resistant colonies per aureobasidin-resistant colony: 0.12
pAURHYG(rep)eGFP [2]; Msh2 mutant
  Colonies on Hygromycin: 0
  Correction Efficiency: 0
  Fold: 0x
pAURHYG(rep)eGFP [2]; Msh3 mutant
  Colonies on Hygromycin: 0
  Correction Efficiency: 0
  Fold: 0x
pAURHYG(rep)eGFP [2]; Msh6 mutant
  Colonies on Hygromycin: 1,270
  Correction Efficiency: 2.35
  Fold: 0.55x
pAURHYG(rep)eGFP [2]; Pms1 mutant
  Colonies on Hygromycin: 2,280
  Correction Efficiency: 114
  Fold: 26.76x
pAURHYG(rep)eGFP [2]; Rad1 mutant
  Colonies on Hygromycin: 1,380
  Correction Efficiency: 8.52
  Fold: 2.00x
pAURHYG(rep)eGFP [2]; Rad2 mutant
  Colonies on Hygromycin: 919
  Correction Efficiency: 3.78
  Fold: 0.89x
pAURHYG(rep)eGFP [2]; exo1 mutant
  Colonies on Hygromycin: 486
  Correction Efficiency: 3.92
  Fold: 0.92x
pAURHYG(rep)eGFP [2]; mre11 mutant
  Colonies on Hygromycin: 12
  Correction Efficiency: 0.63
  Fold: 0.15x
pAURHYG(rep)eGFP [2]; rad10 mutant
  Colonies on Hygromycin: 54
  Correction Efficiency: 0.15
  Fold: 0.04x
pAURHYG(rep)eGFP [2]; rad23 mutant
  Colonies on Hygromycin: 66
  Correction Efficiency: 0.44
  Fold: 0.10x
pAURHYG(rep)eGFP [2]; rad50 mutant
  Colonies on Hygromycin: 336
  Correction Efficiency: 2.09
  Fold: 0.49x
pAURHYG(rep)eGFP [2]; rad51/52 mutant
  Colonies on Hygromycin: 212
  Correction Efficiency: 5.45
  Fold: 1.28x
pAURHYG(rep)eGFP [2]; rad51 mutant
  Colonies on Hygromycin: 104
  Correction Efficiency: 0.62
  Fold: 0.14x
pAURHYG(rep)eGFP [2]; rad52 mutant
  Colonies on Hygromycin: 266
  Correction Efficiency: 3.29
  Fold: 0.77x
pAURHYG(rep)eGFP [2]; rad54 mutant
  Colonies on Hygromycin: 2
  Correction Efficiency: 0.02
  Fold: 0x
pAURHYG(rep)eGFP [2]; rad55 mutant
  Colonies on Hygromycin: 0
  Correction Efficiency: 0
  Fold: 0x
pAURHYG(rep)eGFP [2]; rad57 mutant
  Colonies on Hygromycin: 984
  Correction Efficiency: 17.26
  Fold: 4.05x
pAURHYG(rep)eGFP [2]; rad59 mutant
  Colonies on Hygromycin: 1,198
  Correction Efficiency: 3.06
  Fold: 0.71x
pAURHYG(rep)eGFP [2]; wild type
  Colonies on Hygromycin: 1,218
  Correction Efficiency: 4.26
  Fold: 1x
pAURHYG(rep)eGFP [2]; xrs2 mutant
  Colonies on Hygromycin: 29
  Correction Efficiency: 0.66
  Fold: 0.15x
